In publication PMC3315481, “Phosphorylation of the Drosophila melanogaster RNA–Binding Protein HOW by MAPK/ERK Enhances Its Dimerization and Activity” (PLoS Genetics, 2012):

Target: the molecule itself
Assay: co-IP; S2R+ cells co-transfected with GFP-fused and HA-tagged HOW(L) variants (or gfp with how(l)^WT-HA); lysis in 1% NP40 buffer (50 mM Tris pH 7.5, 100 mM NaCl); IP with mouse anti-GFP on protein A/G beads 1-2 h at 4°C; Western blot with anti-HOW; co-precipitated HA protein normalised to its crude level and to the precipitated GFP protein

| Protein | co-immunoprecipitated HA protein, normalised, relative to HOW(L)^WT |
| --- | --- |
| Held Out Wings, long isoform, phospho-mutant T59A T64A (HOW(L)^TTAA) (natural protein, Drosophila melanogaster, UniProt O01367 1-405, looked up, Held Out Wings (HOW), isoform HOW(L), Drosophila melanogaster, with T59 and T64 mutated to alanine; Two differently tagged copies met in the co-IP: one fused to GFP (bait, vector pTGW) and one tagged with HA (prey, vector pTWH); also called HOW^TTAA; gfp-how(l)^TTAA; source: S2R+ cells, co-transfected, in lysate) MSVCESKAVVQQQLQQHLQQQAAAAVVAVAQQQQAQAQAQAQAQAQQQQQAPQVVVPMAPQHLAPQQQQQSTQSIADYLAQLLKDRKQLAAFPNVFTHVERLLDEEIARVRASLFQINGVKKEPLTLPEPEGSVVTMNEKVYVPVREHPDFNFVGRILGPRGMTAKQLEQETGCKIMVRGKGSMRDKKKEDANRGKPNWEHLSDDLHVLITVEDTENRATVKLAQAVAEVQKLLVPQAEGEDELKKRQLMELAIINGTYRDTTAKSVAVCDEEWRRLVAASDSRLLTSTGLPGLAAQIRAPAAAPLGAPLILNPRMTVPTTAASILSAQAAPTAAFDQTGHGMIFAPYDYANYAALAGNPLLTEYADHSVGAIKQQRRLATNREHPYQRATVGVPAKPAGFIEIQ | 0.56 ± 0.14 |
| Held Out Wings, long isoform, dimerization mutant E106G (HOW(L)^EG) (natural protein, Drosophila melanogaster, UniProt O01367 1-405, looked up, Held Out Wings (HOW), isoform HOW(L), Drosophila melanogaster, with E106 mutated to glycine; Two differently tagged copies met in the co-IP: one fused to GFP (bait, vector pTGW) and one tagged with HA (prey, vector pTWH); also called HOW^EG; gfp-how(l)^EG; source: S2R+ cells, co-transfected, in lysate) MSVCESKAVVQQQLQQHLQQQAAAAVVAVAQQQQAQAQAQAQAQAQQQQQAPQVVVPMTPQHLTPQQQQQSTQSIADYLAQLLKDRKQLAAFPNVFTHVERLLDEGIARVRASLFQINGVKKEPLTLPEPEGSVVTMNEKVYVPVREHPDFNFVGRILGPRGMTAKQLEQETGCKIMVRGKGSMRDKKKEDANRGKPNWEHLSDDLHVLITVEDTENRATVKLAQAVAEVQKLLVPQAEGEDELKKRQLMELAIINGTYRDTTAKSVAVCDEEWRRLVAASDSRLLTSTGLPGLAAQIRAPAAAPLGAPLILNPRMTVPTTAASILSAQAAPTAAFDQTGHGMIFAPYDYANYAALAGNPLLTEYADHSVGAIKQQRRLATNREHPYQRATVGVPAKPAGFIEIQ | 0.13 ± 0.04 |
